Measurements taken from paper PMC2918618, “Characterization of the TnsD-attTn7 complex that promotes site-specific insertion of Tn7” (Mobile DNA, 2010).

Key:
Test in all cases: EMSA; Gel-shift buffer not given (as described in ref. 6); TnsD stored in 500 mM KCl, 50 mM Tris-HCl pH 8.0, 1 mM EDTA, 2 mM DTT, 25% glycerol
TnsD M96I = target: T1, TnsD M96I (Escherichia coli (transposon Tn7), UniProt P13991 1-508, M96I); details: protein: recombinant; tags: intein-chitin tag, cleaved with DTT
T1 sequence: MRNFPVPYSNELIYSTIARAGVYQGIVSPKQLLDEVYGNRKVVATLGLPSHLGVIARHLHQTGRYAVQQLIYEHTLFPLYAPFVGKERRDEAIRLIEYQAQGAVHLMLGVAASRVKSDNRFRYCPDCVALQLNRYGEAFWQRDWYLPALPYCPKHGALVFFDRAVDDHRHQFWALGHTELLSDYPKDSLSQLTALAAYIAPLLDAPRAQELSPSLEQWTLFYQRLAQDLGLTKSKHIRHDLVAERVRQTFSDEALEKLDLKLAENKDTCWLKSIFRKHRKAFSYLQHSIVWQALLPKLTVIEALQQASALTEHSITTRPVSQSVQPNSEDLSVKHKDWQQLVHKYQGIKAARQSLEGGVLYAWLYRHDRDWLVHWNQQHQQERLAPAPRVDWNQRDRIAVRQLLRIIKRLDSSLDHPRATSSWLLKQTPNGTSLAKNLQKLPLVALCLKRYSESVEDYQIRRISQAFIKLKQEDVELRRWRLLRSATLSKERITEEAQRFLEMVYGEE

TnsD P417L = target: T2, TnsD P417L (Escherichia coli (transposon Tn7), UniProt P13991 1-508, P417L); details: protein: recombinant; tags: intein-chitin tag, cleaved with DTT
T2 sequence: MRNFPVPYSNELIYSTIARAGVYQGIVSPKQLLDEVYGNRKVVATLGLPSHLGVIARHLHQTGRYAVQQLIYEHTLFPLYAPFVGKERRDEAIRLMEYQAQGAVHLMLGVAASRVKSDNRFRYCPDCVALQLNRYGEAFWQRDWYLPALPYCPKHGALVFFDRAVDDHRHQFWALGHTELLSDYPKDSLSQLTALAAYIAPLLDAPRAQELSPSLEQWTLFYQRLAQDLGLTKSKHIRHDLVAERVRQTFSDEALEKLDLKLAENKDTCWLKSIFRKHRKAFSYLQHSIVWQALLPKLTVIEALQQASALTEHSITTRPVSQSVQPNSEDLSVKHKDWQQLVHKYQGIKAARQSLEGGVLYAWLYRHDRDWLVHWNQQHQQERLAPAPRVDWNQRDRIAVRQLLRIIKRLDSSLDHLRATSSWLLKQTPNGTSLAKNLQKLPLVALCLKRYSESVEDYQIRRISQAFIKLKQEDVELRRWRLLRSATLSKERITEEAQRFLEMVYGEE

TnsD P147L = target: T3, TnsD P147L (Escherichia coli (transposon Tn7), UniProt P13991 1-508, P147L); details: protein: recombinant; tags: intein-chitin tag, cleaved with DTT
T3 sequence: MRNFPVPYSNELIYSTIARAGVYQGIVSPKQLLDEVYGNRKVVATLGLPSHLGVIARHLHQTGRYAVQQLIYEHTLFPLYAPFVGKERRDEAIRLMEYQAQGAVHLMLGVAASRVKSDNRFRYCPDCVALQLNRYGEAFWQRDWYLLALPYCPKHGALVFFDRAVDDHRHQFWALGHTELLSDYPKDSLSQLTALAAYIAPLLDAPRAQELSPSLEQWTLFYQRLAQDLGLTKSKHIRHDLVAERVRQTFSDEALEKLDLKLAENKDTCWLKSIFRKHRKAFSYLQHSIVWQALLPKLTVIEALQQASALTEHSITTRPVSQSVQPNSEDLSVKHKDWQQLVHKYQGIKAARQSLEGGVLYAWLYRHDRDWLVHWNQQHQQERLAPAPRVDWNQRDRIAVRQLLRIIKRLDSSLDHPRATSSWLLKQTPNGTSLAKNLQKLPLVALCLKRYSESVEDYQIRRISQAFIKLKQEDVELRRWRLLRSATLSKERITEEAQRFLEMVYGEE

TnsD Q340Z = target: T4, TnsD Q340Z (Escherichia coli (transposon Tn7), UniProt P13991 1-339); details: protein: recombinant
T4 sequence: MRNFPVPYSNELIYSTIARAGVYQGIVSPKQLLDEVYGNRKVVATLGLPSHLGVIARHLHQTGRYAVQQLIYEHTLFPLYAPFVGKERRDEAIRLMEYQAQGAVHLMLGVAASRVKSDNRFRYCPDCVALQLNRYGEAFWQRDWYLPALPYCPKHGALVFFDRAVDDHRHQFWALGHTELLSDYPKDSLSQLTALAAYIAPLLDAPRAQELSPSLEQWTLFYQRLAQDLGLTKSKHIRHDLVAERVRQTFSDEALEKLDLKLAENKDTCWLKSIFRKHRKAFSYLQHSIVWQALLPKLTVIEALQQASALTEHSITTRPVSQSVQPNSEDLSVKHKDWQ

TnsD C447Y = target: T5, TnsD C447Y (Escherichia coli (transposon Tn7), UniProt P13991 1-508, C447Y); details: protein: recombinant; tags: intein-chitin tag, cleaved with DTT
T5 sequence: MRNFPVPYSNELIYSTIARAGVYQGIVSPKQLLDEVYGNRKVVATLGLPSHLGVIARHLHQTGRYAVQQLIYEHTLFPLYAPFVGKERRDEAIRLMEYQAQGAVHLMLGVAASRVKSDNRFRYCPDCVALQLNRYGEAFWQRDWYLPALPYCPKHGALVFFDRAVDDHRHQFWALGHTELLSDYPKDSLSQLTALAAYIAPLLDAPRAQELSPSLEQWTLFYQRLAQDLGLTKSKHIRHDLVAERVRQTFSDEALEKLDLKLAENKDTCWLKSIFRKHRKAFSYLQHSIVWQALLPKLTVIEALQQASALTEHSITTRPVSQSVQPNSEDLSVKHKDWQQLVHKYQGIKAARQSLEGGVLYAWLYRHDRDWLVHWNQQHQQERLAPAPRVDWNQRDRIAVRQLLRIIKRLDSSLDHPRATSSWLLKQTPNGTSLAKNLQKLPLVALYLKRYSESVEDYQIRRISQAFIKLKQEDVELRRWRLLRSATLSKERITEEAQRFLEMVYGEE

B1: attTn7 wt (+23 to +58) (dsDNA)
DNA 1: CCGCGTAACCTGGCAAAATCGGTTACGGTTGAGTAA
DNA 2: TTACTCAACCGTAACCGATTTTGCCAGGTTACGCGG
TnsD M96I
  binding signal: 0.3 relative to wt
TnsD P417L
  binding signal: 0.07 relative to wt
TnsD P147L
  binding signal: 0.07 relative to wt
TnsD Q340Z
  binding signal: < 0.05 relative to wt
TnsD C447Y
  binding signal: 0.7 relative to wt
